Reference: patent US9777044B2, “GLUT-1 as a receptor for HTLV envelopes and its uses” (CENTRE NATIONAL DE LA RECHERCHE SCIENTIFIQUE (CNRS), priority 2003, dated 2017)

Tested on: 293T cells and Jurkat T cells
Experiment: RBD binding after overnight culture in the absence of glucose
Set-up: species or system human
Conditions: both 293T cells and Jurkat T cells
Method: Cell culture. 293T human embryonic kidney and HeLa cervical carcinoma cells were grown in Dulbecco's modified Eagle medium (DMEM) with high glucose (4.5 g/l) and Jurkat T-cells were grown in RPMI supplemented with 10% fetal bovine serum (FBS) at 37° C. in a 5% CO2-95% air atmosphere. For glucose starvation experiments, cells were grown in either glucose-free DMEM (Life Technologies) or glucose-free RPMI—(Dutscher) with 10% dialyzed FBS (Life Technologies) and glucose (1 g/l) was supplemented when indicated.
Binding assays. Binding assays were carried out as previously described [Manel, 2003]. Briefly, 5×10^5 cells (293T, HeLa, Jurkat or freshly isolated human erythrocytes) were incubated with 500 μl of H1RBD, H2RBD or ARBD supernatants for 30 min at 37° C., washed with PBA (1% BSA, 0.1% sodium azide in PBS), and incubated with a sheep anti-rabbit IgG antibody conjugated to fluorescein isothiocyanate (Sigma). […] Binding was analyzed on a FACSCalibur (Becton Dickinson) and data analysis was performed using CellQuest (Becton Dickinson) and WinMDI (Scripps) softwares.

B1: H1RBD: first 215 residues of HTLV-1 SU fused to a C-terminal rabbit IgG Fc tag (rFc) (protein)
chain: DYSPSCCTLTIGVSSYHSKPCNPAQPVCSWTLDLLALSADQALQPPCPNLVSYSSYHATYSLYLFPHWIKKPNRNGGGYYSASYSDPCSLKCPYLGCQSWTCPYTGAVSSPYWKFQQDVNFTQEVSRLNINLHFSKCGFPFSLLVDAPGYDPIWFLNTEPSQLPPTAPPLLPHSNLDHILEPSIPWKSKLLTLVQVDVPRDCGCKPCICTVPEVSSVFIFPPKPKDVLTITLTPKVTCVVVDISKDDPEVQFSWFVDDVEVHTAQTQPREEQFNSTFRSVSELPIMHQDWLNGKEFKCRVNSAAFPAPIEKTISKTKGRPKAPQVYTIPPPKEQMAKDKVSLTCMITDFFPEDITVEWQWNGQPAENYKNTQPIMDTDGSYFVYSKLNVQKSNWEAGNTFTCSVLHEGLHNHHTEKSLSHSPGK
increase of binding after overnight culture in the absence of glucose: 2 fold
